Results from US20190144550A1 (Pfizer, published 2019).
Substitutions are numbered along the chain they refer to. Values belong to the binder of their own block, whether it stands above or below them.

Tests used:
[1] = target: T1, 8-histidine tagged recombinant wild-type protein EGFRwt (UniProt P00533 25-645, limits assumed); assay: SPR, captured by anti-mouse Fc
T1 construct: not shown: 8-histidine tag

[2] = target: T2, Monomeric 8-histidine tagged human EGFRvIII extracellular domain (human, UniProt P00533 298-645); assay: SPR, captured by anti-mouse Fc, 37 C
T2 construct: Analyte in all SPR assays; not shown: 8-histidine tag
Excerpt: To generate human antibodies against EGFRvIII, transgenic AlivaMab mice (Ablexis LLC, San Francisco, Calif.) were immunized with alternating schedule of paraformaldehyde-fixed rat glioblastoma cell line expressing EGFRvIII, F98-npEGFRvIII (American Type Culture Collection, Manassas, Va.) and peptides (SEQ ID NO: 227: […]) directed to the junction region in EGFRvIII. Hybridomas were generated using standard techniques. To determine the binding affinity and specificity of these hybridomas to EGFRvIII, antibodies in culture supernatants were captured by anti-mouse Fc using Biacore™ T200 biosensor equipped with anti-mouse Fc coupled CM4 sensor chips (Biacore™ AB, Uppsala, Sweden—now GE Healthcare). Monomeric 8-histidine tagged human EGFRvIII extracellular domain was then injected as the analyte at 10-fold dilution series starting with top concentration 1000 nM. Affinity of anti-EGFRvIII antibodies towards human EGFRvIII was measured at 37° C.

[3] = target: T3, human EGFRvIII expressed on cells (human, UniProt P00533 298-1210); assay: flow cytometry, F98-npEGFRvIII cells
T3 construct: the F98-npEGFRvIII line was obtained from ATCC and its construct is not described; also called F98-npEGFRvIII; F98-EGFRvIII

[4] = target: T3, human EGFRvIII expressed on cells; assay: flow cytometry, F98-npEGFRvIII against F98, F98-EGFRwt and A431 cells

B1: 11F10 (antibody, V domains shown)
VH: QVTLKESGPVLVKPIETLTLTCTVCGFSLSNPRMGVSWIRQPPGKALEWLGHIFSSDEKSYRLFLRSRLSISKDTSKSQVVLTMTNMDPVDTATYYCARDSSDYEGYFDYWGQGTLVTVSS
VL: EIVMTQSPATLSVSPGERTTLSCRASQSVGSNLAWYQQKPGQAPRLLIYGASTRASGVPARFSGSGSGTEFTLTISSLQSEDFAVYSCQEYNNWPFTFGQGTKVEIK
notes: Hybridoma supernatant (AlivaMab mouse); captured/detected via mouse Fc
- binding result [1]: no binding (tested: 1000 nM)
- Kd [2]: 42.4 nM
- koff [2]: 0.00281 s⁻¹
- kon [2]: 66300 M⁻¹ s⁻¹
- % positive [3]: 98%
- MFI [3]: 3280
- fold MFI on EGFRvIII expressing cell line over non-expressing cell lines [4]: ≥ 10 fold

B2: 49B11 (antibody, V domains shown)
VH: QVTLKESGPVLVKPTETLTLTCTVSGFSLSNVRMGVSWIRQPPGKALEWFAHIFSSDEKSIRRSLRSRLTLSKDTSKSQVVLTMTNMDPVDTATYYCARDSSNYEGYFDYWGQGTLVTVSS
VL: EMEVTQSPATLSVSPGERATLSCRASQNIGSDLAWYQQQSGQAPRLLISGASTRATGVPTRFSGSGSGTDFTLTITSLQSEDFAVYYCQQYNDWPFTFGPGTKVDIK
notes: as for B1
- binding result [1]: no binding (tested: 1000 nM)
- Kd [2]: 9.1 nM
- koff [2]: 0.000695 s⁻¹
- kon [2]: 76400 M⁻¹ s⁻¹
- % positive [3]: 98.5%
- MFI [3]: 2980
- fold MFI on EGFRvIII expressing cell line over non-expressing cell lines [4]: ≥ 10 fold

B4: 19A9 (antibody, V domains shown)
VH: B2 VH with K5E, V32A, L47P, S56T, I61L, R63L
VL: EVVMTQSPATLSVSPGERATLSCRASQSVNRNLAWYQQKPGQAPRLLIFGTSTRATGIPARFSGSGSGTEFTLTIDSLQSEHSGLYYCQQYNDWPFTFGPGTKVDIK
notes: as for B1
- binding result [1]: no binding (tested: 1000 nM)
- Kd [2]: 18.6 nM
- koff [2]: 0.00104 s⁻¹
- kon [2]: 55800 M⁻¹ s⁻¹
- % positive [3]: 98.1%
- MFI [3]: 3100
- fold MFI on EGFRvIII expressing cell line over non-expressing cell lines [4]: ≥ 10 fold

The next lines start with the values.

- binding result [1]: no binding (tested: 1000 nM)
- Kd [2]: 41.6 nM
- koff [2]: 0.00424 s⁻¹
- kon [2]: 102000 M⁻¹ s⁻¹
- % positive [3]: 97.9%
- MFI [3]: 2830
- fold MFI on EGFRvIII expressing cell line over non-expressing cell lines [4]: ≥ 10 fold
B3: 29D5 (antibody, V domains shown)
VH: B2 VH with V32P, I39L, S56T, I61Y, R62S, R63P, S67G, L71V, M84L
VL: KIVMTQSPATLSVSPGERATLSCRANQIVSSNLAWYQQKPGQAPRLLVFGTSTRATGIPIRFSGSGSGTEFTLTVSSLQSEDFAVYVCQQYNDWPFTFGPGTKVDIK
notes: as for B1

- binding result [1]: no binding (tested: 1000 nM)
- Kd [2]: 24.3 nM
- koff [2]: 0.00179 s⁻¹
- kon [2]: 73800 M⁻¹ s⁻¹
- % positive [3]: 97.9%
- MFI [3]: 2750
- fold MFI on EGFRvIII expressing cell line over non-expressing cell lines [4]: ≥ 10 fold
B5: 12B2 (antibody, V domains shown)
VH: B1 VH with I15T, C25S, F64S, A98V, D103N, E105G
VL: EVVMTQSPATLSVSPGERATLSCRASQSVINNLAWYQQKPGQAPRLLIYGTSTRATDIPARFSGSGSGTEFTLTISSLQSEDFAVYYCQDYNNWPFTFGPGTKVDIK
notes: as for B1

- binding result [1]: no binding (tested: 1000 nM)
- Kd [2]: 19.9 nM
- koff [2]: 0.0013 s⁻¹
- kon [2]: 65200 M⁻¹ s⁻¹
- % positive [3]: 98.5%
- MFI [3]: 3100
- fold MFI on EGFRvIII expressing cell line over non-expressing cell lines [4]: ≥ 10 fold
B6: 21E7 (antibody, V domains shown)
VH: B2 VH with K5E, V32A, L47P, S56T, I61L, R63L
VL: B4 VL with E1D, M4L, R31S, K39N, T51S, R61S, D76N, G84A, L85V
notes: as for B1

- binding result [1]: no binding (tested: 1000 nM)
- Kd [2]: 32.1 nM
- koff [2]: 0.0015 s⁻¹
- kon [2]: 46700 M⁻¹ s⁻¹
- % positive [3]: 98.3%
- MFI [3]: 3420
- fold MFI on EGFRvIII expressing cell line over non-expressing cell lines [4]: ≥ 10 fold
B7: 20B9 (antibody, V domains shown)
VH: QVTLKESGPVLVKPTETLTLTCTVSGFSLSNARMGVSWIRQPPGKALEWLGHIFSTDEKSYSTSLRGRITISKDTSRGLVVLTLTNMDPVDTATYYCARDSSNYEGYFDFWGPGFLVTVSS
VL: EIVMTQSPATLSVSPGERATLSCRVSQSIGANLAWYQQKFGQAPRLLIYGASTRATGIPVRFSGGGSGTEFTLTISSLQSEDFAIYSCQQYIYWPFTFGPGTTVDIK
notes: as for B1
